Two molecules from US20190374506A1 (BETH ISREAL DEACONESS MEDICAL CENTER, published 2019) can be followed below.

For one test, the target named is T1, Flag-WWP1 (Homo sapiens (Human), UniProt Q9H0M0 1-922).
T1 construct: also called full-length Flag-WWP1; recombinant Flag-WWP1; not shown: Flag tag
The test can be described thus: co-immunoprecipitation: IP Flag, WB PTEN.

Test [1] addresses T2, Flag-WWP1 ΔWW domain (deletion 341-547) (Homo sapiens (Human), UniProt Q9H0M0 1-922).
T2 construct: The two kept ranges are counted on the 922-residue WWP1 entry; not shown: Flag tag
T2 sequence: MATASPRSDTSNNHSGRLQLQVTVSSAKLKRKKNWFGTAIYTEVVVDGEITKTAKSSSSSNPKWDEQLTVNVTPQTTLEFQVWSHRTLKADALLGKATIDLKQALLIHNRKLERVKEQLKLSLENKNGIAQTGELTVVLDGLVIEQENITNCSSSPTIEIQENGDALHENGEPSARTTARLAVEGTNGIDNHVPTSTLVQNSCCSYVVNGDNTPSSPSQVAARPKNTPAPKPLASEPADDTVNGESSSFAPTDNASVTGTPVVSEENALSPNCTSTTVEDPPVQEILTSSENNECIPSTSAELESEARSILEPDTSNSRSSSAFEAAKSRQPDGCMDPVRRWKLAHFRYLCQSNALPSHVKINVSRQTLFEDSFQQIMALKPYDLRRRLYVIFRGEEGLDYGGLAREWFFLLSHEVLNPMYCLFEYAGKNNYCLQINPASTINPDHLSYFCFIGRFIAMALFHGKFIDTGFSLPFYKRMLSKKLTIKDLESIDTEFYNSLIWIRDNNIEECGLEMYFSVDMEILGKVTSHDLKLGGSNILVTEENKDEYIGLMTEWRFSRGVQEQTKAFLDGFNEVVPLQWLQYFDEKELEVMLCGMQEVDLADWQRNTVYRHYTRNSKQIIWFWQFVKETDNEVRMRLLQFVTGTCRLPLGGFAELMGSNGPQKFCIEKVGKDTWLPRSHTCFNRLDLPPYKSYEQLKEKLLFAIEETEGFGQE
In words: co-immunoprecipitation from 293 cells: IP Flag, WB PTEN. Here is the method:
Lysates of 293 cells transfected with indicated constructs were analysed by immunoprecipitation and/or western blot with indicated antibodies.
Western Blotting and Immunoprecipitation. For western blotting, cells were lysed in RIPA buffer (Boston BioProducts) supplemented with protease (Roche) and phosphatase (Roche) inhibitor. Proteins were separated on NuPAGE 4-12% Bis-Tris gradient gels (Invitrogen), transferred to polyvinylidine difluoride membranes (Immobilon P, Millipore) and the blots were probed with the indicated antibodies. For immunoprecipitation, PC3, 293T and MEF cells were transfected with the indicated expression vectors by using LIPOFECTAMIN 2000 (Life Technologies). 24 hours after transfection, cells were lysed in RIPA buffer with protease (Roche) and phosphatase (Roche) inhibitor. 500 μg of total lysates were pre-cleared for 30 minutes at 4° C., and then immunoprecipitated with anti-Myc (Cell Signaling Technology 9B11, 1:500), or anti-PTEN (Cell Signaling Technology 9559, 1:500) antibody overnight at 4° C. The Protein-A or Protein-G sepharose beads (GE Healthcare) were then added and incubated for another 2 hours. The immunoprecipitates were washed with RIPA buffer three times. […]

B1: PTEN 4E mutant (enzyme)
chain: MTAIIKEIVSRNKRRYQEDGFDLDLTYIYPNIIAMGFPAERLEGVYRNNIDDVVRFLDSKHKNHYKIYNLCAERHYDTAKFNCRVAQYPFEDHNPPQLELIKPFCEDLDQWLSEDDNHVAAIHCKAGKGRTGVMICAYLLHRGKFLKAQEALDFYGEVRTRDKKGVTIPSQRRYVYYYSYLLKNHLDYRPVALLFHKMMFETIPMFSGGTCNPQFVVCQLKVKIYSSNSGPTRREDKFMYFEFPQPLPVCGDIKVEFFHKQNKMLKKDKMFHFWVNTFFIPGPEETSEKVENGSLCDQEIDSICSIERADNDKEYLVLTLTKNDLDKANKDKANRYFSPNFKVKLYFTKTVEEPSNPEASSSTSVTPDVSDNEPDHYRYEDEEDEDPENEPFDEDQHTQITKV
notes: also called pcDNA3-Myc-PTEN 4E; phosphomimetic 4E; not shown: Myc tag by the plasmid list
On to B1, for which, in the test with Flag-WWP1, the binding result is listed as “no binding”.

B2: Myc-PTEN (enzyme)
chain: not shown
notes: also called pcDNA3-Myc-PTEN; not shown: Myc tag
B2: the binding result in test [1] is recorded as “no binding”.
